The source of these data is paper PMC12447514, “Modulation of Amyloid‑β Aggregation by Surface Proteins from Pathogens Associated with Alzheimer’s Disease” (ACS Chemical Neuroscience, 2025).

This data set deals with the molecule itself. Nature of the data set: SEC; HiLoad 16/600 Superdex 75 pg in PBS or 20 mM sodium phosphate, 200 μM EDTA pH 8; oligomeric state verified in Supporting Figure S2 (method not shown). Background: Size exclusion chromatography separates by hydrodynamic size, large species first.

B1: Borrelia burgdorferi outer surface protein C (residues 11-191) (natural protein)
chain: ASTNPDESAKGPNLTEISKKITDSNAVVLAVKEVEALLSSIDELAKTIGKKIEANGLGNEADKNGSLLAGAYAISTLIKQKLDGLKGLEGLNKEIAEAKKCSEAFTKKLQDSNADLGKHNATDADSKEAILKTNGTKTKGAKELEELFKSVESLSKAAKEALSNSVKELTSPVVAESPKKP
notes: outer surface protein C of Borrelia burgdorferi sensu lato, UniProt P94245, residues 11-191; the N-terminal signal peptide was replaced by His-tagged polyubiquitin-B and a TEV protease cleavage site; also called OspC; Bb outer surface protein C; not shown: polyubiquitin-B with C-terminal His-tag (UniProt J3QS39), N-terminal, cleaved
Broadly, the stoichiometry N is the number of molecules, sites or subunits per partner or assembly. Turning to B1, the “stoichiometry N” value was 2.
